Reference: paper PMC9491697 (PNAS Nexus, 2022)
Values joined by “and” are separate entries in the source; they are usually repeats but may differ in a detail not shown here. Identical values can stand only once.

T1: human E-cadherin ectodomain EC1–5 with Twin-Strep and 8His tags (used for BLI) (Homo sapiens)
T1 construct: the range counts on the precursor; also called E-cadherin used for BLI; source: Expi293, transfected, purified from culture supernatant (StrepTactin XT)
T1 chain: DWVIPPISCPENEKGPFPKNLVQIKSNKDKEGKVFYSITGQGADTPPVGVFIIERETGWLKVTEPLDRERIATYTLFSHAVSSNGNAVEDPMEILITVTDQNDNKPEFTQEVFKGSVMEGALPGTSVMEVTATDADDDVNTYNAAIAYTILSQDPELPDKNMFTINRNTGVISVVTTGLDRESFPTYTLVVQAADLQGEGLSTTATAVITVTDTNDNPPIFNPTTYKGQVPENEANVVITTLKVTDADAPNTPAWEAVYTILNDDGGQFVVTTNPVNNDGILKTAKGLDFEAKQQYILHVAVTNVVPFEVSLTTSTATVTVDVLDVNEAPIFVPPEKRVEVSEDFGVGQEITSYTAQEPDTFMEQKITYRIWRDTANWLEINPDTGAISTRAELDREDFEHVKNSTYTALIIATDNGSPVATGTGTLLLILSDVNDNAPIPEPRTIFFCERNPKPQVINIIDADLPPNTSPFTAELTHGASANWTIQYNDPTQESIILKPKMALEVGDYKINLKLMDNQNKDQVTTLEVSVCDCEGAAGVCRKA


How the values were obtained:
[1] = target: T2, human E-cadherin EC1-5-TwinStrep-8His (Homo sapiens, UniProt P12830); test: BLI; E-cadherin EC1-5-TwinStrep-8His loaded on Ni-NTA sensors; Fabs in a 1:3 dilution series; Octet Red96, 23°C, 1000 rpm; 50 mM Tris pH 8.0, 150 mM NaCl, 3 mM CaCl2, 0.25 mg/mL BSA, 0.005% Tween-20; 1:1 binding global fit; details: both partners purified
T2 construct: human E-cadherin extracellular domains EC1-5, residues 155 to 698; also called hEC1-5-TS-8His; hE-EC15-TS-8H; source: Expi293, transfected, purified from supernatant (StrepTactin XT); not shown: Twin-Strep, C-terminal, kept; 8His, C-terminal, kept

[2] = target: T1, human E-cadherin ectodomain EC1–5 with …; test: BLI; method taken from the construct description (E-cadherin used for BLI had an additional 8His tag); format and conditions not shown; details: both partners purified

Binder	Kd [1]	Kd [2] [nM]
66E8 Fab (Fab, V domains shown, heavy chain of the 66E8 Fab in PDB 6VEL; light chain of the 66E8 Fab in PDB 6VEL; Fab as used in BLI and analytical SEC; source: ExpiCHO, transfected, purified) VH: EVQLQQSGPELVKPGASVKISCKASGYSFTGYFMNWVKQSHGKSLEWIGRINPYNGDTFYKQRFKGKATLTVDKSSSTVHMDLLSLTSEDSAVYYCGRGNYYFDYWGQGTTLTVSS VL: DVQITQSPSYLAASPGETITINCRTSKNISKYLAWYQEKPGKTNKLLIYSGYTLQSGIPSRFSGSGSGTDFTLTISSLEPEDFAMYYCQQHNEYPYTFGGGTKLEIK	90.1 nM and 96.5 nM and 91.8 nM and 92.8 nM	–
66E8 Fab (activating antibody to human E-cadherin) (Fab, V domains shown, source: ExpiCHO, transfected, purified (CaptureSelect LC-kappa (mur) and Ni-NTA, or StrepTactin XT); kifunensine and Endo Hf for crystallography) VH: EVQLQQSGPELVKPGASVKISCKASGYSFTGYFMNWVKQSHGKSLEWIGRINPYNGDTFYKQRFKGKATLTVDKSSSTVHMDLLSLTSEDSAVYYCGRGNYYFDYWGQGTTLTVSS VL: DVQITQSPSYLAASPGETITINCRTSKNISKYLAWYQEKPGKTNKLLIYSGYTLQSGIPSRFSGSGSGTDFTLTISSLEPEDFAMYYCQQHNEYPYTFGGGTKLEIK	–	~100
19A11 Fab (activating antibody to human E-cadherin) (Fab, V domains shown, The 6His form was used for the crystal complex; Purified on a murine kappa light chain resin; also called 19A11-6His Fab; source: ExpiCHO, transfected, purified (CaptureSelect LC-kappa (mur) and Ni-NTA, or StrepTactin XT); ConA-cleared for crystallography) VH: QVQLKESGPGLVAPSQSLSITCTVSGFSLSRYGVHWVRQPPGKGLEWLGMMWGGGNTDYNSALKSRLSISKDNSKSQVFLKMNSLQTDDTAMYYCASSNYVLGYAMDYWGQGTSVTVSS VL: DIVMTQSPSSLAMSVGQKVTMNCKSSQSLLNSSNQKNYLAWYQQKPGQSPKLLIYFTSTRGSGVPDRFIGSGSGTDFTLTISSVEAEDLADYFCQQHYRTPHTFGGGTKVEIK	–	~6.5
